Reference: US20070162998A1

Target: papain (cysteine protease) (UniProt P00784)
Test: cell-based or functional assay

UniProt P00784, sequence (P00784 134-345 limits assumed): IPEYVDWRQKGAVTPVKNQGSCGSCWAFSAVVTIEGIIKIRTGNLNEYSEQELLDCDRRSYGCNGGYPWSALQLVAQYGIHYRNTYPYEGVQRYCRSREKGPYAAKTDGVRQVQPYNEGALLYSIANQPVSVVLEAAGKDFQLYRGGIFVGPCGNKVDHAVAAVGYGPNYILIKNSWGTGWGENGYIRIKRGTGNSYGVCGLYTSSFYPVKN

residual protease activity of papain on 0.1% gelatin/SDS-PAGE: 100
Substance: recombinant CeCPI protein (taro cysteine protease inhibitor, tarocystatin)
